Data as given in the RNAGym collection of RNA variant scans (doi:10.1073/pnas.2313332121).

B1: TPR t1 (parent)
chain: GACCAAUCUGCCCUCAGAGCUCGAGAACAUCUUCGGAUGCAGAGGAGGCAGGCUUCGGUGGCGCGAUAGCGCCAACGUCCUCAACCUCCAAUGCAUCCCACCACAUGAUGAUGCCUGAAGAGCCUUGGUUUUUUG

Variants of: B1
Assay: polymerase ribozyme fitness, log enrichment relative to wild type (log ratio); higher = more active; in vitro selection for triplet polymerase activity
Procedure, shortened: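 Mutant libraries were PCR-built and transcribed for each subunit of a heterodimeric triplet polymerase ribozyme and selected for one round in triplicate at −7 °C, frozen, before gel excision of extended constructs and streptavidin-bead capture. Input and output libraries were Illumina-sequenced, keeping genotypes with ≥10 input reads and ≥1 read per output. Fitness is a logarithmic ratio of genotype to wild-type enrichment, in base 2, using inverse-variance-weighted replicate averages.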

Variant | polymerase ribozyme fitness (log ratio)
U9G G113A | -0.0202
U9G G120A U130A | 1.11
U9G U14G G93A | -0.26
U9G U21A C97A | -4.03
U9G U30C G120C G127A | -3.41
U9G U54A C97G U131C | -4.7
U9G U55C C89U C94A U126A | -1.95
U9G U96G | -0.204
G10A A18U G77A U87A C115A | -1.44
G10A A26G A103U C104A A121C | -0.666
G10A A27U G42A C70U C99A | -6.56
G10A A29C | -1.99
G10A A29C G39A G69U | -2.05
G10A A29U C72A C88G U116G | -3.97
G10A A37U C53A C56G G69A C88U G120C G122U | -1.99
G10A A37U C72A G77C G113A C114U U116G G128A | -7.17
G10A A41U C53U U78G C89A A105U G120U | -5.97
G10A A83C G110C U133A | -3.93
G10A A90C A121C | 0.254
G10A A90C G93C A111U | -5.12
G10A A95U G122A | 0.0165
G10A C11A C15A | -4.29
G10A C11G C70G | -2.13
G10A C11U C28A | -4.2

Variant | polymerase ribozyme fitness (log ratio)
G10A C12G C22G C104G | -5.13
G10A C12U G19U C85U C123U | -1.68
G10A C12U U112A | 1.73
G10A C13G C22G A37C C72A A95U | -4.63
G10A C13U U30C C31A G42U C123A U126G | -5.09
G10A C13U U30G A46C C72U C123G | -6.25
G10A C13U U38G C56U C82G | -1.27
G10A C15G G61U | -3.16
G10A C20A U87A C124U | -0.469
G10A C20U A27C G61U C102U | -6.05
G10A C28G U106A G127U G128C | -3.76
G10A C34A | -2.87
G10A C40A C56A A84C C85A C99A C115U | -7.46
G10A C40A C72A A111C | -1.19
G10A C40U G69C C123G | -0.405
G10A C49U | -0.363
G10A C53A G71C C104U G110A C114G | -6.44
G10A C56G G117A | -3.95
G10A C56U A74C A75U G93U | -0.9
G10A C56U U96C | -0.627
G10A C62A A91C C123U | -0.505
G10A C64U U129G | -1.78
G10A C70U A121U | 1.19
G10A C72U G113A | -1.32

Variant | polymerase ribozyme fitness (log ratio)
G10A C73G | -0.355
G10A C73U U116C | -1.59
G10A C88A A90G G122U U133G | 0.185
G10A C97U | -0.852
G10A C114G G135A | -3.42
G10A G17U C115A G135U | 0.196
G10A G36C A50G U92G | -3.51
G10A G39U A90C U106A | -2.41
G10A G42U C85G | -1.94
G10A G44A G47A G61C | -3.22
G10A G45A A95C C102A | -2.76
G10A G45A G63U C82A C85A U92C | -5.42
G10A G47A A68G U109C C123G | -6.84
G10A G52A G60A C79A | -1.36
G10A G57U A90G U126A | -1.18
G10A G58C A111G | 0.287
G10A G61U A100C G135U | -1.17
G10A G61U G122A | 0.738
G10A G63C | -0.414
G10A G63U C86U G120A | 0.0567
G10A G71A C80A | -4.78
G10A G93U C102A | -3.7
G10A G107A C123U C124A | -4.28
G10A G120U G122A | 1.51

Variant | polymerase ribozyme fitness (log ratio)
G10A U32C C72G U87A U131A | -2.99
G10A U33G | -4.61
G10A U59C A66C A68G U106G A121U | -4.4
G10A U92A | -2.86
G10A U129A | -1.14
G10C A18U | -3.34
G10C A26C A37U U78C A83U U87A C115G G127A | -6.88
G10C A26C G120C G122A C123G G128A | -5.85
G10C A26G G69A U125A | -5.51
G10C A26G G71A | -2.61
G10C A27G C40U A121U | 0.906
G10C A37U C72A | -0.966
G10C A43U U129C | -3.15
G10C A83U U106G | -3.53
G10C A103U C123U | -5.06
G10C C11G A103U | -3.76
G10C C11U C13A A37U C70U | -0.31
G10C C12A G51A G127C | -4.99
G10C C12U U14A G71U G107U | -5.41
G10C C13A C40A G42U G52U C72A | -5.16
G10C C13A C64U C82U A83C | -1.29
G10C C13G G61A U106G A118U | -2.68
G10C C15A | -2.21
G10C C15A G69U U112G | -1.87

Variant | polymerase ribozyme fitness (log ratio)
G10C C20U G48C C114A C123U | -3.33
G10C C28G | -3.74
G10C C34A | -3.12
G10C C49G C64U A83G U125A | -3.57
G10C C56U G117C | -4.57
G10C C70U A108U U112A U132C | -6.08
G10C C73A | -1.86
G10C C85U | -1.64
G10C C89A | -2.73
G10C C98U | -1.81
G10C C114U | -2.38
G10C G25C C31G C89A C114U | -7.2
G10C G36C G45C U59G C62U C80U | -3.25
G10C G39A C56G G113U A118U | -4.76
G10C G42U | -2.19
G10C G42U G48A | -2.39
G10C G45U G47U C73A G117A A119U | -5.46
G10C G47U C101A A103U | -6.38
G10C G57C G117C | -4.35
G10C G61A G93C | -1.11
G10C G69A | -4.78
G10C G71A G113C | -4.81
G10C G113C | -2.27
G10C U32C G52A U112A G128A | -2.52

Variant | polymerase ribozyme fitness (log ratio)
G10C U38C C40U C64U C101A | -1.8
G10C U87A | -0.978
G10C U112A | 0.23
G10U A16C C49U A118G C124A | -2.5
G10U A16C G44C C70U A111C U125G | -7.14
G10U A18U C40A C56G | -4.94
G10U A18U C70U | -4.05
G10U A24G G58C C79U | -2.27
G10U A26U G39C C89U | -5.19
G10U A27C U112C | -1.73
G10U A27U C76G U109G | -5.77
G10U A37C G113U U129A | -5.04
G10U A37U | -0.888
G10U A41U C72G C101U G110A | -4.92
G10U A46C | -0.286
G10U A46C A74U G127C | -2.03
G10U A50U | -1.65
G10U A83U | -0.308
G10U A100U | -1.18
G10U C11G A29C C53A A74U | -3.94
G10U C11U | 0.0495
G10U C12A C49U A118U U131G | -1.34
G10U C12A G71U U78A C80U C114G | -3.23
G10U C12U C31U C72U C85A G122A | -5.23

Variant | polymerase ribozyme fitness (log ratio)
G10U C13A C104U | -0.097
G10U C13U G60C G107A U112C G127U | -4.55
G10U C13U G61U | -0.215
G10U C15U A91C U125A | -3.89
G10U C15U C56A C72G G120A | -0.935
G10U C20A A84U U131C | -2.84
G10U C20G C99U C115U | -8.2
G10U C20U U32A A84U C104A | -3.8
G10U C22G A46G C76A A118U | -4.37
G10U C22G A50C A118G | -5.56
G10U C22U G47A G63C U96A C123A | -5.69
G10U C28G A46U G52A G63A U87C | -5.27
G10U C34G C102U | -6.42
G10U C40A C64U U81C | -2.46
G10U C40G | -0.556
G10U C40U A41G A46C C64U | -5.98
G10U C49U G57A U106C | -2.46
G10U C53A G77C U78A G107C A121U | -4.29
G10U C53G U78A | -2.99
G10U C56A | 0.154
G10U C56A U59C U112A | -0.649
G10U C56A U112A | 0.0795
G10U C73G | -0.976
